# According to patent publication US20240270846A1 (published 2024):
# Where a chain is given by its changes, count along the chain named. Numbers in names are those of the source.
# B1: GLS3000 V94A one-arm antibody (antibody, human IgG1, kappa, L234A L235A, N297A, name in Kabat numbering)
# light: DIVMTQSPLSLPVTPGEPASISCRSSQSLVHSNRNTYLHWYQQKPGQAPRLLIYKVSNRFSGVPDRFSGSGSGTDFTLKISRVEAEDVGVYYCGQGTQAPYTFGQGTKLEIKRTVAAPSVFIFPPSDEQLKSGTASVVCLLNNFYPREAKVQWKVDNALQSGNSQESVTEQDSKDSTYSLSSTLTLSKADYEKHKVYACEVTHQGLSSPVTKSFNRGEC
# heavy: QVQLVESGGGVVQPGRSLRLSCAASGFTFSNAWMHWVRQAPGKGLEWVAQIKAKSNNYATYYAESVKGRFTISRDDSKNSLYLQMNSLKTEDTAVYYCRYVHYGAYYGVDAWGQGTTVTVSSASTKGPSVFPLAPSSKSTSGGTAALGCLVKDYFPEPVTVSWNSGALTSGVHTFPAVLQSSGLYSLSSVVTVPSSSLGTQTYICNVNHKPSNTKVDKKVEPKSCDKTHTCPPCPAPEAAGGPSVFLFPPKPKDTLMISRTPEVTCVVVDVSHEDPEVKFNWYVDGVEVHNAKTKPREEQYASTYRVVSVLTVLHQDWLNGKEYKCKVSNKALPAPIEKTISKAKGQPREPQVYTLPPSRCELTKNQVSLSCAVKGFYPSDIAVEWESNGQPENNYKTTPPVLDSDGSFFLVSKLTVDKSRWQQGNVFSCSVMHEALHNHYTQKSLSLSPDYKDDDDK
# chain: EPKSSDKTHTCPPCPAPELLGGPSVFLFPPKPKDTLMISRTPEVTCVVVDVSHEDPEVKFNWYVDGVEVHNAKTKPREEQYNSTYRVVSVLTVLHQDWLNGKEYKCKVSNKALPAPIEKTISKAKGQPREPQVCTLPPSRDELTKNQVSLWCLVKGFYPSDIAVEWESNGQPENNYKTTPPVLDSDGSFFLYSKLTVDKSRWQQGNVFSCSVMHEALHNRYTQKSLSLSP
# B2: GLS3000 F55T one-arm antibody (antibody, human IgG1, kappa, L234A L235A, N297A, name in Kabat numbering)
# light: B1 light with F60T, A99V
# heavy: B1 heavy
# chain: B1 chain
# B3: GLS3000 G89H one-arm antibody (antibody, human IgG1, kappa, L234A L235A, N297A, name in Kabat numbering)
# light: B1 light with G94H, A99V
# heavy: B1 heavy
# chain: B1 chain
# B4: GLS3000 G89M one-arm antibody (antibody, human IgG1, kappa, L234A L235A, N297A, name in Kabat numbering)
# light: B1 light with G94M, A99V
# heavy: B1 heavy
# chain: B1 chain
# B5: GLS3000 F55H one-arm antibody (antibody, human IgG1, kappa, L234A L235A, N297A, name in Kabat numbering)
# light: B1 light with F60H, A99V
# heavy: B1 heavy
# chain: B1 chain
# B6: GLS3000 F55E one-arm antibody (antibody, human IgG1, kappa, L234A L235A, N297A, name in Kabat numbering)
# light: B1 light with F60E, A99V
# heavy: B1 heavy
# chain: B1 chain
# B7: GLS3000 F55M one-arm antibody (antibody, human IgG1, kappa, L234A L235A, N297A, name in Kabat numbering)
# light: B1 light with F60M, A99V
# heavy: B1 heavy
# chain: B1 chain
# B8: GLS3000 F55G one-arm antibody (antibody, human IgG1, kappa, L234A L235A, N297A, name in Kabat numbering)
# light: B1 light with F60G, A99V
# heavy: B1 heavy
# chain: B1 chain
# B9: GLS3000 G89A one-arm antibody (antibody, human IgG1, kappa, L234A L235A, N297A, name in Kabat numbering)
# light: B1 light with G94A, A99V
# heavy: B1 heavy
# chain: B1 chain
# B10: GLS3000 G89N one-arm antibody (antibody, human IgG1, kappa, L234A L235A, N297A, name in Kabat numbering)
# light: B1 light with G94N, A99V
# heavy: B1 heavy
# chain: B1 chain
# B11: GLS3000 G89T one-arm antibody (antibody, human IgG1, kappa, L234A L235A, N297A, name in Kabat numbering)
# light: B1 light with G94T, A99V
# heavy: B1 heavy
# chain: B1 chain
# B12: GLS3000 G89L one-arm antibody (antibody, human IgG1, kappa, L234A L235A, N297A, name in Kabat numbering)
# light: B1 light with G94L, A99V
# heavy: B1 heavy
# chain: B1 chain
# B13: GLS3000 G89D one-arm antibody (antibody, human IgG1, kappa, L234A L235A, N297A, name in Kabat numbering)
# light: B1 light with G94D, A99V
# heavy: B1 heavy
# chain: B1 chain
# B14: GLS3000 G89R one-arm antibody (antibody, human IgG1, kappa, L234A L235A, N297A, name in Kabat numbering)
# light: B1 light with G94R, A99V
# heavy: B1 heavy
# chain: B1 chain
# B15: GLS3000 F55N one-arm antibody (antibody, human IgG1, kappa, L234A L235A, N297A, name in Kabat numbering)
# light: B1 light with F60N, A99V
# heavy: B1 heavy
# chain: B1 chain
# B16: GLS3000 F55K one-arm antibody (antibody, human IgG1, kappa, L234A L235A, N297A, name in Kabat numbering)
# light: B1 light with F60K, A99V
# heavy: B1 heavy
# chain: B1 chain
# B17: GLS3000 F55V one-arm antibody (antibody, human IgG1, kappa, L234A L235A, N297A, name in Kabat numbering)
# light: B1 light with F60V, A99V
# heavy: B1 heavy
# chain: B1 chain
# B18: GLS3000 G89I one-arm antibody (antibody, human IgG1, kappa, L234A L235A, N297A, name in Kabat numbering)
# light: B1 light with G94I, A99V
# heavy: B1 heavy
# chain: B1 chain
# B19: GLS3000 G89Q one-arm antibody (antibody, human IgG1, kappa, L234A L235A, N297A, name in Kabat numbering)
# light: B1 light with G94Q, A99V
# heavy: B1 heavy
# chain: B1 chain
# B20: GLS3000 F55L one-arm antibody (antibody, human IgG1, kappa, L234A L235A, N297A, name in Kabat numbering)
# light: B1 light with F60L, A99V
# heavy: B1 heavy
# chain: B1 chain
# B21: GLS3000 F55R one-arm antibody (antibody, human IgG1, kappa, L234A L235A, N297A, name in Kabat numbering)
# light: B1 light with F60R, A99V
# heavy: B1 heavy
# chain: B1 chain
# B22: GLS3000 F55S one-arm antibody (antibody, human IgG1, kappa, L234A L235A, N297A, name in Kabat numbering)
# light: B1 light with F60S, A99V
# heavy: B1 heavy
# chain: B1 chain
# B23: GLS3000 G89K one-arm antibody (antibody, human IgG1, kappa, L234A L235A, N297A, name in Kabat numbering)
# light: B1 light with G94K, A99V
# heavy: B1 heavy
# chain: B1 chain
# B24: GLS3000 G89V one-arm antibody (antibody, human IgG1, kappa, L234A L235A, N297A, name in Kabat numbering)
# light: B1 light with G94V, A99V
# heavy: B1 heavy
# chain: B1 chain
# B25: GLS3000 F55Q one-arm antibody (antibody, human IgG1, kappa, L234A L235A, N297A, name in Kabat numbering)
# light: B1 light with F60Q, A99V
# heavy: B1 heavy
# chain: B1 chain
# B26: GLS3000 G89P one-arm antibody (antibody, human IgG1, kappa, L234A L235A, N297A, name in Kabat numbering)
# light: B1 light with G94P, A99V
# heavy: B1 heavy
# chain: B1 chain
# B27: GLS3000 F55Y one-arm antibody (antibody, human IgG1, kappa, L234A L235A, N297A, name in Kabat numbering)
# light: B1 light with F60Y, A99V
# heavy: B1 heavy
# chain: B1 chain
# B28: GLS3000 G89F one-arm antibody (antibody, human IgG1, kappa, L234A L235A, N297A, name in Kabat numbering)
# light: B1 light with G94F, A99V
# heavy: B1 heavy
# chain: B1 chain
# B29: GLS3000 F55P one-arm antibody (antibody, human IgG1, kappa, L234A L235A, N297A, name in Kabat numbering)
# light: B1 light with F60P, A99V
# heavy: B1 heavy
# chain: B1 chain
# B30: GLS3000 G89E one-arm antibody (antibody, human IgG1, kappa, L234A L235A, N297A, name in Kabat numbering)
# light: B1 light with G94E, A99V
# heavy: B1 heavy
# chain: B1 chain
# B31: GLS3000 F55I one-arm antibody (antibody, human IgG1, kappa, L234A L235A, N297A, name in Kabat numbering)
# light: B1 light with F60I, A99V
# heavy: B1 heavy
# chain: B1 chain
# B32: GLS3000 F55W one-arm antibody (antibody, human IgG1, kappa, L234A L235A, N297A, name in Kabat numbering)
# light: B1 light with F60W, A99V
# heavy: B1 heavy
# chain: B1 chain
# Target: T1, CD3 epsilon homodimer protein (UniProt P07766 23-126)
# T1 construct: Construct of the homodimer is not described; also called CD3 (CD3 epsilon)
# T1 sequence (P07766 23-126): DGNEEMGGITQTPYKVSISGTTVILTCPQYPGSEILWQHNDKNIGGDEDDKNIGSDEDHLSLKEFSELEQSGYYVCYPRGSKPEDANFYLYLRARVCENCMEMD
# Test: SPR Biacore T200, CD3e homodimer on chip, antibody analyte;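 further: CD3 epsilon homodimer amine-coupled on CM4 sensor chip, antibodies injected as analyte at 25 °C in HBS-EP+, ratio ≥0.8 taken as binding retained versus unaltered parent antibody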
row,Binder,ratio of amounts bound (altered form/GLS3000)
1,B1,1.05
2,B2,0.41
3,B3,0.7
4,B4,0.52
5,B5,0.94
6,B6,0.72
7,B7,0.8
8,B8,1.31
9,B9,1.13
10,B10,0.8
11,B11,1.03
12,B12,0.94
13,B13,0.33
14,B14,0.19
15,B15,0.98
16,B16,1.33

row,Binder,ratio of amounts bound (altered form/GLS3000)
1,B17,0.71
2,B18,1.07
3,B19,0.38
4,B20,0.76
5,B21,1.31
6,B22,0.69
7,B23,0.4
8,B24,1.63
9,B25,0.91
10,B26,0.35
11,B27,0.92
12,B28,1.09
13,B29,1.16
14,B30,0.26
15,B31,0.82
16,B32,0.69
